The target in assay [1] is human CD20 (human) (UniProt P11836). Description: flow cytometry on Raji cells (CD20 on the cell surface), serial dilution of the mAb, detection with PE-conjugated mouse anti-human IgG1Fc, MFI.
Assay [2] addresses human CD22 (human) (UniProt P20273). Description: flow cytometry on K562.huCD22.Luc cells against parental K562 cells. In general terms: Flow cytometry measures light scatter and fluorescence of single cells or particles in a stream.
Assay [3] has as its target human CD20 (human) (UniProt P11836). Description: flow cytometry on Raji cells (CD20 on the cell surface), serial dilution of the mAb, detection with PE-conjugated mouse anti-human IgG1Fc, MFI. This is another data set of the same source.
Assay [4] has as its target human CD19, CD20 and CD22 on CD19+CD20+CD22+ tri-positive B lymphoma cells (Raji, Daudi) (human), P15391. The assay can be described thus: cell-based or functional assay.

Read-outs that look alike come from different tables or passages of the source.

UniProt P11836, sequence (P11836 whole entry): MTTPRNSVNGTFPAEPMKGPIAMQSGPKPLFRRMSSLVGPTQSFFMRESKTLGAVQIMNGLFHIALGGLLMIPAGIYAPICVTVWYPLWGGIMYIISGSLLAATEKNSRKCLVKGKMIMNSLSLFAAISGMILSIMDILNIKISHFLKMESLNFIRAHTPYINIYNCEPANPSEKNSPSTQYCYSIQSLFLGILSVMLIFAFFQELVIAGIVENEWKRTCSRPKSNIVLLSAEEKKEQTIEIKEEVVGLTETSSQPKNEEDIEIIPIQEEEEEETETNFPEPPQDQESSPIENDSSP

One may read the EC50 as the concentration needed to bring the measured effect to its halfway point. Read a high EC50 as weaker potency. Rituximab Fab-huIgG1Fc mAb (antibody) yielded a 50% effective concentration (EC50) in assay [1] of 8.1 nM.
As for “PE conjugated anti-human CD22 antibody (Miltenyi Biotec. Cat. No. 130-105-086)”, the MFI fold over K562 cells (negative control) in assay [2] is 642 fold.
Consider Leu16 Fab-huIgG1Fc mAb (antibody), for which the EC50 in assay [1] worked out at 8.5 nM; in assay [3] it was 13.2 nM.

B1: AIO-8C1 CAR (protein)
chain: QVQLVESGGGSVQAGGSLRLSCGASGNINSRNCMGWFRQAPGKEREGVAAIGQVTGRSYYVDSVKGRFTISLDNAKNTLYLQMNTLKPEDTAMYYCAAAPGCLLSALRSADYRNWGQGTQVTVSSGGGGSEVQLVESGPGLVKPSQTLSLTCTVSGASITTGEFYWNWFRQPPGKGLEWMGAIAASGSTTYSPSFESRTSISRDTSENQFYLQLSSVTPEDTAVYYCGRSFGVAAVTTGQNRGQGTQVTVSSGGGGSQIQLVESGGGLVQPGGSLRLSCAASGFTFSNYPMTWLRQAPGKGLESVSDITSGGDRPYYADSVKGRFTISRDNAKNMLYLEMNSLKTEDTAVYYCATWDRTLTGQGTQVTVSSTSTTTPAPRPPTPAPTIASQPLSLRPEACRPAAGGAVHTRGLDFACDIYIWAPLAGTCGVLLLSLVITLYCKRGRKKLLYIFKQPFMRPVQTTQEEDGCSCRFPEEEEGGCELRVKFSRSADAPAYQQGQNQLYNELNLGRREEYDVLDKRRGRDPEMGGKPRRKNPQEGLYNELQKDKMAEAYSEIGMKGERRRGKGHDGLYQGLSTATKDTYDALHMQALPPR
Molecule B1 showed an IFN-γ release in co-culture with Raji cells, 24 hours, against AIO-7C1 CAR-T cells in assay [4] of 2 fold.
